PMC5394236

Target: GST fused recombinant Pparγ LBD protein (UniProt P37231)
Experiment: co-immunoprecipitation (IP: Flag) with immunoblot band intensity quantification
Conditions: lysates of HEK293 cells transfected with Flag-Lrp1β-Wt or Mut mixed with GST fused recombinant Pparγ LBD protein; n=3; parent: est. 100; read off a plot

UniProt P37231, sequence (P37231 whole entry, the tested form may be a part): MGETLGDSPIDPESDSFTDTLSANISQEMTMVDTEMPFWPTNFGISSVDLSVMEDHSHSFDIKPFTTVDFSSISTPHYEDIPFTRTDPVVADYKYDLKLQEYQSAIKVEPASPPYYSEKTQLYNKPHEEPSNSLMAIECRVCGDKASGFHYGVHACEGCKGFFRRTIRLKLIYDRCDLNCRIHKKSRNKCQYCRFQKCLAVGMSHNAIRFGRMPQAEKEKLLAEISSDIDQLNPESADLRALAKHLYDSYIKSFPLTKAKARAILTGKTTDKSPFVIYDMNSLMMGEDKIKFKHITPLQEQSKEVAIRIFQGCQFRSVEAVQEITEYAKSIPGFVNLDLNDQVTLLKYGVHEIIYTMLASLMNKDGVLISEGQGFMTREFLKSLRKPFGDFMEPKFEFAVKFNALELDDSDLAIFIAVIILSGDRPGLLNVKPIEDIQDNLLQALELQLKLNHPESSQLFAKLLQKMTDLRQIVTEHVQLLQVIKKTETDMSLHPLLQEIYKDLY

Flag-Lrp1β-Wt (VGGLL) L4487A; L4488A
percent of parent: 13%
